Patent US20090305339A1, “Polypeptides With Laccase Activity” (VIALACTIA BIOSCIENCES (NZ) LIMITED, priority 2006, published 2009)

Key:
[1] = Laccase activity, spectrophotometric, SGZ as substrate; type: biochemical; conditions: data not shown
Method: (§1) Laccase activity was determined spectrophotometrically in a thermostated spectrophotometer (Perkin-Elmer) at 40° C. in 100 mM sodium citrate buffer, pH 4.5 (1 ml). The standard assay was performed at 530 nm, using SGZ as the oxidation substrate (ε530=64,000 M^−1cm^−1). The reaction was started by adding SGZ, from a stock solution in methanol, to a final concentration of 20 μM. […] Oxidation of phenol red (75 μM) was determined by the decrease in absorbance at 432 nm. The activity:pH and activity:temperature relationships were determined by incubating the enzyme:substrate mixtures at different pH values and constant temperature (40° C.), and at different temperatures (15-80° C.) and constant pH (4.5), respectively. Catalytic constants were derived by fitting the experimental data onto the Michaelis-Menten model. Control measurements without enzyme were carried out to correct for possible chemical oxidation of the substrates.

[2] = Laccase activity, spectrophotometric, DMP as substrate; type: biochemical; conditions: data not shown
Method: as §1

[3] = Laccase activity, veratryl alcohol as substrate; type: biochemical; conditions: data not shown
Method: as §1

[4] = Laccase activity, guaiacol as substrate; type: biochemical; conditions: data not shown
Method: as §1

[5] = Oxidative reactions of various compounds (substrate preference, overall kinetics, pH range); type: biochemical; conditions: order of oxidized substrates
Method: as §1

[6] = pH- and temperature-dependent activity and inactivation profiles; type: biochemical; conditions: sodium citrate pH 4.5, 1 mM SGZ or DMP
Method: FIG. 2A represents the effect of various pH values on the activity of recombinant purified RL5 laccase. The activity was measured at 40° C. using 1 mM SGZ (syringaldazine) or DMP as substrate. The buffers (100 mM) used were: citrate (pH 3.0-5.5), MES (pH 5.5-7.0), HEPES (pH 7.0-8.0), Tris-HCl (pH 8.0-9.0) and glycine-NaOH (pH 9.0-12). The activity of RL5 for DMP reached an optimum at a broad pH ranging from 3.5-9.0, being optimal at 4.0-5.0; however, it maintained more than 70% activity at pH 3.5 and 9.0 (FIG. 2A).
FIG. 2B represents the pH inactivation of purified RL5 laccase in sodium citrate pH 4.5 (indicated with “∘”) or glycine-NaOH pH 9.0 (indicated with “[…]”) over a time period of 240 min. 100% activity in the purified protein sample equals 7.2 units/mg (measured at 40° C.).
FIG. 2C represents the effect of the temperature on the activity of recombinant purified RL5 laccase. The enzyme activity was assayed at each indicated temperature in sodium citrate pH 4.5 in the presence of 1 mM SGZ or DMP. Activity was monitored at 420 nm. Protein activity increased as the temperature was raised to a maximum at ˜60° C. Therefore, RL5 is stable at high temperatures.
FIG. 2D represents the thermal inactivation of purified RL5 laccase. Purified enzyme was incubated in vials at 60° C. ([…]) or 65° C. (∘). At the indicated times, samples were withdrawn and tested for laccase activity at 40° C. by using SGZ or DMP as a substrate. 100% activity in the purified protein sample equals 17.2 units/mg.
Corresponding experiments were performed with BT4389 and YfiH under conditions as described above for FIGS. 2A to 2D (data not shown). The activity of these enzymes reached an optimum at a temperature of 52° C. (for BT4389) and 44° C. (for YfiH) and the thermal activity maintained for more than 80% at 55° C. (for BT4389) and at 50° C. (for YfiH). The activity of both enzymes reached an optimum at a pH range from 4.5 to 6.0 (for BT4389) and from 5.5 to 8.4 (for YfiH), although 80% activity maintained at pH 4.0 to 7.5 (for BT4389) and 5.0 to 9.0 (for YfiH).
as §1

[7] = substrate: CCn1c(=NN=c2sc3cc(S(=O)(=O)O)ccc3n2CC)sc2cc(S(=O)(=O)O)ccc21; assay: purified protein, by the assay type; conditions: other: 40° C., pH 4.5, 14 nM protein, substrate 0 to 1 mM
[8] = substrate: COc1cc(/C=N/N=C/c2cc(OC)c(O)c(OC)c2)cc(OC)c1O; assay: Steady-state kinetics of RL5 laccase, spectrophotometric oxidation of laccase substrates; type: biochemical, bovine rumen metagenome; conditions: other: 40° C., pH 4.5, 14 nM protein, substrate 0 to 1 mM
Method: (§2) Protein concentrations were determined according to Bradford (31), with BSA as standard.
(§3) Laccase activity was determined spectrophotometrically in a thermostated spectrophotometer (Perkin-Elmer) at 40° C. in 100 mM sodium citrate buffer, pH 4.5 (1 ml). The standard assay was performed at 530 nm, using SGZ as the oxidation substrate (ε530=64,000 M^−1cm^−1). The reaction was started by adding SGZ, from a stock solution in methanol, to a final concentration of 20 μM. […] Catalytic constants were derived by fitting the experimental data onto the Michaelis-Menten model. Control measurements without enzyme were carried out to correct for possible chemical oxidation of the substrates.

[9] = substrate: COc1cccc(OC)c1O; assay: as above; type: biochemical, bovine rumen metagenome; conditions: other: 40° C., pH 4.5, 14 nM protein, substrate 0 to 1 mM
Method: as §2, §3

B1: YfiH: DUF152 domain containing hypothetical protein from Escherichia coli, Gene Bank AAG57706, identified as laccase (FIG. 13) (protein, listed as Escherichia coli)
chain: MSKLIVPQWPLPKGVAACSSTRIGGVSLPPYDSLNLGAHCGDNPDHVEENRKRLFAAGNLPSKPVWLEQVHGKDVLNLTGEPYASKRADASYSNTPGRVCAVMTADCLPVLFCNRAGTEVAAAHAGWRGLCAGVLEETVSCFADNPENILAWLGPAIGPRAFEVGAEVREAFMAVDAEASTAFIQHGDKYLADIYQLARQRLANVGVEQIFGGDRCTYTENETFFSYRRDKTTGRMASFIWLI
modifications: Description of sequence amino acid sequence of protein YfiH with unknown function DUF152 from Escherichia coli (Gene Bank accession number AAG57706) (see Fig. 13)
oxidation activity [1]: 5.6 units/g protein | oxidation activity [2]: 4 units/g protein | oxidation activity [3]: 2.1 units/g protein | oxidation activity [4]: 0.5 units/g protein | substrate preference [5]: SGZ>DMP>>veratryl alcohol>>guaiacol | temperature optimum of activity [6]: 44 °C

B2: RL5 laccase (bovine rumen metagenome), wild type, FIG. 11 (unidentified prokaryotic organism) (protein)
chain: MIELEKLDFAKSVEGVEAFSTTRGQVDGRNAYSGVNLCDYVGDDALRVLDARLTLAMQLGVDLDDLVMPRQTHSCRVAVIDERFRALDIDEQEAALEGVDALVTRLQGIVIGVNTADCVPIVLVDSQAGIVAVSHAGWRGTVGRIAKAVVEEMCRQGATVDRIQAAMGPSICQDCFEVGDEVVEAFKKAHFNLNDIVVRNPATGKAHIDLRAANRAVLVAAGVPAANIVESQHCSRCEHTSFFSARRLGINSGRTFTGIYRK
Km [7]: 26.2 µM | kcat [7]: 18.05 s⁻¹ | Km [8]: 0.43 µM | kcat [8]: 663.45 s⁻¹ | Km [9]: 0.45 µM | kcat [9]: 1174 s⁻¹
